The target of this assay is mannose-6-phosphate receptor (human (cultured skin fibroblasts from a Fabry disease patient)) (UniProt O00264). In words: cell-based or functional assay.
UniProt O00264, sequence (O00264 whole entry): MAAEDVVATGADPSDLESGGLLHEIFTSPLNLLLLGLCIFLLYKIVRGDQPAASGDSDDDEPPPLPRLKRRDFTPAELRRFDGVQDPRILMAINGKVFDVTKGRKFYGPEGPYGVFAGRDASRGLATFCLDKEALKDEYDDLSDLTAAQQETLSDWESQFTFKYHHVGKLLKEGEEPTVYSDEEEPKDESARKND

On to “mannosidase-treated α-galactosidase (human α-galactosidase produced by S. cerevisiae strain HPY21G, treated with Cellulomonas SO-5-derived α-mannosidase) (from UniProt P06280 32-429) (enzyme)”, for which the α-galactosidase activity in the cell extract of Fabry patient-derived fibroblasts 18 hours after adding enzyme at 1 µg/ml (uptake experiment) amounted to 3 fold.

These data come from patent publication US20050064539A1.
